The source of these data is US5976877.

The assay has as its target HLA class II molecules on the Burkitt lymphoma line Raji.

B1: LAG-3 protein (Lymphocyte Activation Gene-3), mature membrane protein of 470 amino acids (receptor)
chain: VPVVWAQEGAPAQLPCSPTIPLQDLSLLRRAGVTWQHQPDSGPPAAAPGHPLAPGPHPAAPSSWGPRPRRYTVLSVGPGGLRSGRLPLQPRVQLDERGRQRGDFSLWLRPARRADAGEYRAAVHLRDRALSCRLRLRLGQASMTASPPGSLRASDWVILNCSFSRPDRPASVHWFRNRGQGRVPVRESPHHHLAESFLFLPQVSPMDSGPWGCILTYRDGFNVSIMYNLTVLGLEPPTPLTVYAGAGSRVGLPCRLPAGVGTRSFLTAKWTPPGGGPDLLVTGDNGDFTLRLEDVSQAQAGTYTCHIHLQEQQLNATVTLAIITVTPKSFGSPGSLGKLLCEVTPVSGQERFVWSSLDTRSQRSFSGPWLEAQEAQLLSQPWQCQLYQGERLLGAAVYFTELSSPGAQRSGRAPGALPAGHLLLFLTLGVLSLLLLVTGAFGFHLWRRQWRPRRFSALEQGIHPRRLRAR
Consider B1, for which the rosette formation / adhesion of Raji cells to transfected COS-7 cells was found to be 23%.
